Experimental data reported in paper PMC3742443, “A Bacteriophage Tailspike Domain Promotes Self-Cleavage of a Human Membrane-Bound Transcription Factor, the Myelin Regulatory Factor MYRF” (PLoS Biology, 2013).

Target: the molecule itself
Assay: SEC; Superdex 200 10/300 GL; protein dialysed in 20 mM HEPES pH 7.5, 50 mM NaCl, 10 mM β-mercaptoethanol, 10% glycerol, about 2 mg/ml; size by comparison with a standard curve

B1: StrepII-MYRF-319:577, the N-terminal fragment from the auto-processing of StrepII-MYRF-319:708-10xHis (domain or fragment, human, UniProt Q9Y2G1-2 319-577, looked up)
chain: PSPGLLQDSDSLSGSYLDPNYQSIKWQPHQQNKWATLYDANYKELPMLTYRVDADKGFNFSVGDDAFVCQKKNHFQVTVYIGMLGEPKYVKTPEGLKPLDCFYLKLHGVKLEALNQSINIEQSQSDRSKRPFNPVTVNLPPEQVTKVTVGRLHFSETTANNMRKKGKPNPDQRYFMLVVALQAHAQNQNYTLAAQISERIIVRASNPGQFESDSDVLWQRAQVPDTVFHHGRVGINTDRPDEALVVHGNVKVMGSLMHP
notes: Myelin regulatory factor MYRF (C11orf9), human, 1111-amino-acid-long isoform; numbers count on: the 1111-amino-acid isoform (NP_037411); Cloned in pET52b between BamHI and SacI; The C-terminal 10xHis stays on the other cleavage product; also called N-terminal fragment of MYRF-319:708; source: E. coli BL21 Star (DE3) pLysS, cut product of StrepII-MYRF-319:708-10xHis, purified (Ni-NTA flow-through, …)
stoichiometry N: 3
